{"source": "paper PMC4447340", "biological_target": "Cyclophilin J (human) (UniProt Q9H2H8)", "sequence (Q9H2H8 whole entry)": "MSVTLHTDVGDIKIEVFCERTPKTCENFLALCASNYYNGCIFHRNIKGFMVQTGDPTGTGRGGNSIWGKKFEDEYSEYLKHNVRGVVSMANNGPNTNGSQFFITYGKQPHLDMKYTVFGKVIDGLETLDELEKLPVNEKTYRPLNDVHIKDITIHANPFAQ"}
{"substance": "Cyclosporin A (peptide)", "values": [{"measurement": "inhibition of the PPIase activity of CYPJ (chymotrypsin-coupled assay, 13.1 μM CYPJ, 1-16 μM CsA)", "value": 12, "unit": "µM"}]}
